Data reported in paper PMC10033314.
Where a chain is given by its changes, count along the chain named. Numbers in names are those of the source. Read-outs that look alike come from different tables or passages of the source. Blank lines part the entries; values can stand above or below the molecule they belong to.

How the values were obtained:
[1] = biological target: Quenched-fluorescent peptide substrate fluorescein-5(6)-carbonyl-Ala-Glu-Leu-Asn-Gly-Arg-Pro-Ile-Ser-Ile-Ala-Lys(5(6)-TAMRA)
[2] = biological target: Versican V1-5GAG (truncated V1, residues 21-694) (UniProt P13611)
[3] = biological target: Biglycan, full length, C-terminal 6x-His (human) (UniProt P21810)
Sequence of UniProt P21810 (P21810 38-368): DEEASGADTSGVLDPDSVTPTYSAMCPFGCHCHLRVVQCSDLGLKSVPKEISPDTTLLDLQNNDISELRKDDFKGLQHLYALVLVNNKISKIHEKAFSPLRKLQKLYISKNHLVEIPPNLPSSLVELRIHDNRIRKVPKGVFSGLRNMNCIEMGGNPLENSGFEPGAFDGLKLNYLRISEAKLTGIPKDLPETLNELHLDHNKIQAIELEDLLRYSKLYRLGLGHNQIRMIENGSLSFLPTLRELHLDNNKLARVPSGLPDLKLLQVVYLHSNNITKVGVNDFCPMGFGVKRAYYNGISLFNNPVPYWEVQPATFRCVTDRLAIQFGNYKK

[4] = biological target: ADAMTS1 (Homo sapiens) (UniProt Q9UHI8); conditions: cited from earlier work
[5] = biological target: Versican G3 (Homo sapiens) (UniProt P13611); conditions: cited from earlier work
[6] = biological target: Versican V1-5GAG (truncated V1, residues 21-694) (UniProt P13611); remark: listed apart in the source
[7] = biological target: Full-length versican V1 (UniProt P13611)
[8] = biological target: Versican V1-5GAG (truncated V1, residues 21-694) (UniProt P13611); remark: listed apart in the source
[9] = biological target: Full-length versican V1 (UniProt P13611); remark: listed apart in the source

Molecule: Fibulin-1 (from UniProt P23142)
Kd [4]: 1000 nM

Molecule: Fibulin-1 domain II (from UniProt P23142)
Kd [5]: 26 nM

B2: A disintegrin-like and metalloproteinase with thrombospondin type 1 motifs 1 (ADAMTS1), wild type (enzyme)
chain: FVSSHRYVETMLVADQSMAEFHGSGLKHYLLTLFSVAARLYKHPSIRNSVSLVVVKILVIHDEQKGPEVTSNAALTLRNFCNWQKQHNPPSDRDAEHYDTAILFTRQDLCGSQTCDTLGMADVGTVCDPSRSCSVIEDDGLQAAFTTAHELGHVFNMPHDDAKQCASLNGVNQDSHMMASMLSNLDHSQPWSPCSAYMITSFLDNGHGECLMDKPQNPIQLPGDLPGTSYDANRQCQFTFGEDSKHCPDAASTCSTLWCTGTSGGVLVCQTKHFPWADGTSCGEGKWCINGKCVNKTDRKHFDTPFHGSWGMWGPWGDCSRTCGGGVQYTMRECDNPVPKNGGKYCEGKRVRYRSCNLEDCPDNNGKTFREEQCEAHNEFSKASFGSGPAVEWIPKYAGVSPKDRCKLICQAKGIGYFFVLQPKVVDGTPCSPDSTSVCVQGQCVKAGCDRIIDSKKKFDKCGVCGGNGSTCKKISGSVTSAKPGYHDIITIPTGATNIEVKQRNQRGSRNNGSFLAIKAADGTYILNGDYTLSTLEQDIMYKGVVLRYSGSSAALERIRSFSPLKEPLTIQVLTVGNALRPKIKYTYFVKKKKESFNAIPTFSAWVIEEWGECSKSCELGWQRRLVECRDINGQPASECAKEVKPASTRPCADHPCPQWQLGEWSSCSKTCGKGYKKRSLKCLSHDGGVLSHESCDPLKKPKHFIDFCTMAECS
kcat/Km for proteolysis of the QF peptide [1]: 4200 M⁻¹ s⁻¹ | kcat/Km for cleavage of V1 (50 nM) at Glu441-Ala442, time course with versikine ELISA, no cofactor [7]: 3400 M⁻¹ s⁻¹ | kcat/Km for cleavage of V1-5GAG (50 nM) at Glu441-Ala442, time course with versikine ELISA [8]: 4200 M⁻¹ s⁻¹ | kcat/Km for cleavage of FL versican, as told in the discussion and the abstract [9]: 3600 M⁻¹ s⁻¹

B3: ADAMTS1 K795Q (β6-β7 loop of the spacer domain) (enzyme)
chain: B2 chain with K543Q
kcat/Km for cleavage of V1-5GAG (50 nM), time course with versikine ELISA [6]: 730 M⁻¹ s⁻¹

B4: ADAMTS1 K735Q (β1-β2 loop of the spacer domain) (enzyme)
chain: B2 chain with K483Q
kcat/Km for cleavage of V1-5GAG (50 nM), time course with versikine ELISA [6]: 4800 M⁻¹ s⁻¹

B7: ADAMTS1 K818Q (β8-β9 loop of the spacer domain) (enzyme)
chain: B2 chain with K566Q
kcat/Km for cleavage of V1-5GAG (50 nM), time course with versikine ELISA [6]: 6050 M⁻¹ s⁻¹

B8: ADAMTS1 K735Q/K795Q (β1-β2 and β6-β7 loops of the spacer domain) (enzyme)
chain: B2 chain with K483Q, K543Q
kcat/Km for cleavage of V1-5GAG (50 nM), time course with versikine ELISA [6]: 570 M⁻¹ s⁻¹

Further lines, results first:

kcat/Km for proteolysis of the QF peptide [1]: 6100 M⁻¹ s⁻¹ | kcat/Km for cleavage of V1-5GAG (50 nM), time course with versikine ELISA [2]: 61 M⁻¹ s⁻¹
Molecule: ADAMTS1 variant MD (truncated after the disintegrin-like domain) (domain or fragment)

kcat/Km for proteolysis of the QF peptide [1]: 6200 M⁻¹ s⁻¹ | kcat/Km for cleavage of V1-5GAG (50 nM), time course with versikine ELISA [2]: 66 M⁻¹ s⁻¹
Molecule: ADAMTS1 variant MDT (truncated after the central TSR motif) (domain or fragment)

kcat/Km for proteolysis of the QF peptide [1]: 4500 M⁻¹ s⁻¹ | kcat/Km for cleavage of V1-5GAG (50 nM), time course with versikine ELISA [2]: 260 M⁻¹ s⁻¹ | reduction of the 30 kDa biglycan fragment against WT ADAMTS1; variant at 50 nM, 24 h at 37 °C, immunoblot and densitometry [3]: 75 % reduction
Molecule: ADAMTS1 variant MDTC (truncated after the cysteine-rich domain) (domain or fragment)

kcat/Km for proteolysis of the QF peptide [1]: 7600 M⁻¹ s⁻¹ | kcat/Km for cleavage of V1-5GAG (50 nM), time course with versikine ELISA [2]: 7300 M⁻¹ s⁻¹
Molecule: ADAMTS1 variant MDTCS (truncated after the spacer domain) (domain or fragment)

kcat/Km for cleavage of V1-5GAG (50 nM), time course with versikine ELISA [6]: 460 M⁻¹ s⁻¹
B1: ADAMTS1 variant 756-765/828-835 (β3-β4 and β9-β10 loops replaced by those of ADAMTS4) (enzyme)
chain: FVSSHRYVETMLVADQSMAEFHGSGLKHYLLTLFSVAARLYKHPSIRNSVSLVVVKILVIHDEQKGPEVTSNAALTLRNFCNWQKQHNPPSDRDAEHYDTAILFTRQDLCGSQTCDTLGMADVGTVCDPSRSCSVIEDDGLQAAFTTAHELGHVFNMPHDDAKQCASLNGVNQDSHMMASMLSNLDHSQPWSPCSAYMITSFLDNGHGECLMDKPQNPIQLPGDLPGTSYDANRQCQFTFGEDSKHCPDAASTCSTLWCTGTSGGVLVCQTKHFPWADGTSCGEGKWCINGKCVNKTDRKHFDTPFHGSWGMWGPWGDCSRTCGGGVQYTMRECDNPVPKNGGKYCEGKRVRYRSCNLEDCPDNNGKTFREEQCEAHNEFSKASFGSGPAVEWIPKYAGVSPKDRCKLICQAKGIGYFFVLQPKVVDGTPCSPDSTSVCVQGQCVKAGCDRIIDSKKKFDKCGVCGGNGSTCKKISGSVTSAKPGYHDIITIPTGATNIEVKQQGNPGHRSSFLAIKAADGTYILNGDYTLSTLEQDIMYKGVVLRYSGSSAALERIRSFSPLKEPLTIQVLTAGNPQDTRIKYTYFVKKKKESFNAIPTFSAWVIEEWGECSKSCELGWQRRLVECRDINGQPASECAKEVKPASTRPCADHPCPQWQLGEWSSCSKTCGKGYKKRSLKCLSHDGGVLSHESCDPLKKPKHFIDFCTMAECS

kcat/Km for cleavage of V1-5GAG (50 nM), time course with versikine ELISA [6]: 410 M⁻¹ s⁻¹
B5: ADAMTS1 variant 828-835 (β9-β10 loop residues 828-835 replaced by ADAMTS4 residues 788-795) (enzyme)
chain: B2 chain with V576A, A579P, L580Q, R581D, P582T, K583R

kcat/Km for cleavage of V1-5GAG (50 nM), time course with versikine ELISA [6]: 870 M⁻¹ s⁻¹
B6: ADAMTS1 R756Q/R759Q/R762Q (β3-β4 loop of the spacer domain) (enzyme)
chain: B2 chain with R504Q, R507Q, R510Q
